Assay [1] has as its target T1, VEGF (human, UniProt P15692-4 27-191, limits assumed).
T1 construct: Biotinylated in the KDR-IgG ELISA, amine-coupled to the chip in BIAcore; also called biotinylated VEGF; vascular endothelial growth factor
The experiment in a line: BIAcore SPR, F(ab) over immobilized VEGF. The text has this: (§1) BIAcore™ Biosensor Assay: VEGF binding of the humanized and chimeric F(ab)s were compared using a BIAcore™ biosensor (Karlsson et al. Methods: A Comparison to Methods in Enzymology 6:97-108 (1994)). […] VEGF was coupled to a CM-5 biosensor chip through primary amine groups according to manufacturer's instructions (Pharmacia). […] Data points from 0-4500 sec were used for off-rate kinetic analysis. The dissociation rate constant (koff) was obtained from the slope of the plot of ln(R0/R) versus time, where R0 is the signal at t=0 and R is the signal at each time point.
(§2) The slope, Kₛ, was obtained from the plot of ln(−dR/dt) versus time for each F(ab) concentration using the BIAcore™ kinetics evaluation software as described in the Pharmacia Biosensor manual. R is the signal at time t. […] The association rate constant (kₒₙ) was obtained from the slope of the plot of Kₛ versus F(ab) concentration. At the end of each cycle, bound F(ab) was removed by injecting 5 μl of 50 mM HCl at a flow rate of 20 μl/min to regenerate the chip.
For orientation: SPR reads the build-up and loss of mass on a sensor chip optically.

A further assay addresses T2, VEGF121 (human, UniProt P15692 27-147).
T2 construct: mature; Immobilized on the biosensor chip via primary amino groups; also called Purified VEGF121
T2 sequence (looked up): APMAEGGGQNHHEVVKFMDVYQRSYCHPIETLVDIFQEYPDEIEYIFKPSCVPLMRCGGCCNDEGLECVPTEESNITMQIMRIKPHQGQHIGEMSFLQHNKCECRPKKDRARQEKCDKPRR
The assay can be described thus: BIAcore SPR, Fab over immobilized VEGF121. As for the experimental part:
VEGF₁₂₁ was covalently immobilized on the biosensorchip via primary amino groups. Binding of humanized A4.6.1 Fab variants was measured by flowing solutions of Fab in PBS/0.05% TWEEN 20™ over the chip at a flow rate of 20 μL/min. Following each binding measurement, residual Fab was stripped from the immobilized ligand by washing with 5 μL of 50 mM aqueous HCl at 3 μL/min. Binding profiles were analyzed by nonlinear regression using a simple monovalent binding model (BIAevaluation software v2.0; Pharmacia).

Assay [2] concerns the target T1, VEGF. The experiment in a line: competition ELISA (biotinylated VEGF to KDR-IgG). Here is the method: Standards (6.9-440 ng/ml chimeric F(ab)) and two-fold serial of samples were incubated with 2 nM biotinylated VEGF for 1 h in tubes. The solutions from the tubes were then transferred to the ELISA plates and incubated for 1 h. […] Titration curves were fit with a four-parameter nonlinear regression curve-fitting program (KaleidaGraph, Synergy Software, Reading Pa.). […] Assays for full-length IgG were the same as for the F(ab)s except that the assay buffer contained 10% human serum.

Assay [3] addresses T1, VEGF. The assay can be described thus: BIAcore SPR, F(ab) over immobilized VEGF, koff/kon.
From the text: as §1, §2

“And” between values parts separate entries of the source, which are not always exact repeats. Identical values can stand only once.

B1: chimeric F(ab) (Fab, V domains shown)
VH: EIQLVQSGPELKQPGETVRISCKASGYTFTNYGMNWVKQAPGKGLKWMGWINTYTGEPTYAADFKRRFTFSLETSASTAYLQISNLKNDDTATYFCAKYPHYYGSSHWYFDVWGAGTTVTVSS
VL: DIQMTQTTSSLSASLGDRVIISCSASQDISNYLNWYQQKPDGTVKVLIYFTSSLHSGVPSRFSGSGSGTDYSLTISNLEPEDIATYYCQQYSTVPWTFGGGTKLEIKR
notes: also called chim-F(ab); A4.6.1 chimera
In the assay with VEGF [1], B1 yielded a koff of 5.9e-05 s⁻¹ and a kon of 65000 M⁻¹ s⁻¹. In the assay with VEGF121, this molecule showed an equilibrium dissociation constant (Kd) of 1.6 nM, a koff of 8.5e-05 s⁻¹ and a kon of 54000 M⁻¹ s⁻¹. In the assay with VEGF [2], the concentration giving a half-maximal response (EC50) is 0.049 µg/mL and 1 nM; the “EC50 F(ab)-X / EC50 chimeric F(ab)” value worked out at 1 ratio. For the same molecule, the affinity with VEGF [3], expressed as Kd, was 0.91 nM.

By koff is commonly meant the rate constant with which the complex falls apart. For orientation: kon means the second-order rate constant of association. High values mean faster complex formation, low ones slower complex formation. The term Kd denotes the equilibrium constant for the complex coming apart. One may read the EC50 as the concentration needed to bring the measured effect to its halfway point.

The values are drawn from patent US20050112126A1 (Genentech, published 2005).
